The results in this text go back to PMC4865869.

Experiment [1] has as its target constitutively active RasC mutant (RasC^CA, G62L) (Dictyostelium) (UniProt P32253). The experiment is described as follows: pull-down; GFP-FRB/Kin^TOR with active GST-fused GTPase (GppNHp-loaded or constitutively active mutant), 25 ug of each, 50 mM Tris-Cl, 150 mM NaCl, 5 mM MgCl2, 1 mM beta-mercaptoethanol, pH 7.5; GSH resin; washes with 500 mM NaCl; GFP and GST immunoblotting. A general note: Immunoblotting shows a protein as a band on a membrane.

The target in experiment [2] is GST-fused RasC (Dictyostelium) (UniProt P32253). Described as above.
The target in experiment [3] is Rap1 pre-loaded with mGppNHp (GDI assay) (Dictyostelium) (UniProt P18613). The experiment is described as follows: guanine nucleotide dissociation inhibition (GDI) assay; Rap1 or RasG pre-loaded with fluorescent mGppNHp, excess unlabeled GppNHp, with or without 1 uM RIP3^RBD; kobs of fluorescence decay; without effector kobs Rap1 5.0 x 10^-5 s^-1, RasG 5.9 x 10^-5 s^-1.
Chain of UniProt P18613 (P18613 whole entry): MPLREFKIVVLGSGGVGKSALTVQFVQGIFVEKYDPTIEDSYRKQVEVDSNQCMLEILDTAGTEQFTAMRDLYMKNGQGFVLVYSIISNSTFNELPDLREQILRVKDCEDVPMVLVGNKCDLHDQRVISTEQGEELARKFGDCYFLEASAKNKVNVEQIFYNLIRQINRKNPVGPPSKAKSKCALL

With “GFP-fused TOR catalytic domain (FRB/Kin^TOR, aa 1820-2380) (from UniProt Q86C65 1820-2380) (domain or fragment)”, the binding efficiency (percent) in experiment [1] and in experiment [2] was 9% in each case.
In turn, “RIP3^RBD (aa 511-838) (domain or fragment)” displayed a kobs of mGppNHp dissociation from Rap1 with 1 uM RIP3^RBD in experiment [3] of 1e-07 s⁻¹.
